Results from patent US20080160570.

Molecular target: fusion protein ubiquitin-growth hormone (hybrid polypeptide)
Sequence (chain, as listed by the source): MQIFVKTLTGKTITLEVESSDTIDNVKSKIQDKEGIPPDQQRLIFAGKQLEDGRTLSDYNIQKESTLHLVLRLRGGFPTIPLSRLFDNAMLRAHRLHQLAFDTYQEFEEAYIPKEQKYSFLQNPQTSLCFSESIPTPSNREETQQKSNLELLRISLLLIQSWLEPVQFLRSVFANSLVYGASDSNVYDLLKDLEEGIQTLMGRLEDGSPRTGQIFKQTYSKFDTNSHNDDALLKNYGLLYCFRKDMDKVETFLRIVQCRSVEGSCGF

| Protein | enzymatic cleavage of the carrier protein ubiquitin from growth hormone (37° C., 1 h); amount of fusion protein per amount of enzyme |
| --- | --- |
| UBP1ΔC (UBP1 protease mutant) (protein) GGDHLNYIWESWSEMTTNFRNNNSLSRWLPRSKFTHLDEEILKRGGFIAGLWNDGNTCFMNSWLQSLASSRELMEFLDNNWIRTYEEIEQNEHNEEGNGQESAQDEATHKKNTRKGGKWYGKHKKKLNRKSSSKEDEEKSQEPDITFSWALRDLLSALNAKYYRDKPYFKTNSLLKAMSKSPRKNILLGYDQEDAQEFFQNILAELESNWKSLNTEKLDTTPWAKSELPDDALWGQLNLGEWGTWYIPTEQIDPNSILHDKSIQNFTPFKLMTPLDGITAERIGCLQCGENGGIRYSWFSGLSLNLPNENIGSTLKLSQLLSDWSKPEIIEGWECNRCALTAAHSHLFGQLKEFEKKPEGSIPEKPINAWKDRWHQIEEWLAKPWIDDEDYKKLHTANMWRKCSKSKQILISRPPPLLSIHINRSWFDPRTYMIRKNNSKWLFKSRLNLAPWCCDINEINLDARLPMSKKEKAAQQDSSEDENIGGEYYTKLHERFEQEFEDSEEEKEYDDAEGNYASHYNHTKDISNYDPLNGEWDGWTSDDEDEYIEETDALGNTIKKRIIEHSDWENENWKDNEELQEIDNWSLDEPKINWEDQLETSSDEEDWIPAPPINYARSFSTWPATPLTYSLRSWIWHYGTHNYGHYIAFRKYRGCWWRISDETWYWWDEAEWLSTPGWFMLFYEYDFDEETGKMKDDLEAILSNNEEDDEKEQEQKGWQEPKESQEQGEGEEQEEGQEQMKFERTEDHRDISGKDWNGSHHHHHH | UBP1Δ C 1 µg-14 µg protein |
| UBP1ΔC2 (UBP1 protease mutant) (protein) GGFIAGLVNDGNTCFMNSVLQSLASSRELMEFLDNNVIRTYEEIEQNEHNEEGNGQESAQDEATHKKNTRKGGKVYGKHKKKLNRKSSSKEDEEKSQEPDITFSVALRDLLSALNAKYYRDKPYFKTNSLLKAMSKSPRKNILLGYDQEDAQEFFQNILAELESNVKSLNTEKLDTTPVAKSELPDDALVGQLNLGEVGTVYIPTEQIDPNSILHDKSIQNFTPFKLMTPLDGITAERIGCLQCGENGGIRYSVFSGLSLNLPNENIGSTLKLSQLLSDWSKPEIIEGVECNRCALTAAHSHLFGQLKEFEKKPEGSIPEKPINAVKDRVHQIEEVLAKPVIDDEDYKKLHTANMVRKCSKSKQILISRPPPLLSIHINRSVFDPRTYMIRKNNSKVLFKSRLNLAPWCCDINEINLDARLPMSKKEKAAQQDSSEDENIGGEYYTKLHERFEQEFEDSEEEKEYDDAEGNYASHYNHTKDISNYDPLNGEVDGVTSDDEDEYIEETDALGNTIKKRIIEHSDVENENVKDNEELQEIDNVSLDEPKINVEDQLETSSDEEDVIPAPPINYARSFSTVPATPLTYSLRSVIVHYGTHNYGHYIAFRKYRGCWWRISDETVYVVDEAEVLSTPGVFMLFYEYDFDEETGKMKDDLEAILSNNEEDDEKEQEQKGVQEPKESQEQGEGEEQEEGQEQMKFERTEDHRDISGKDVNGSHHHHHH | UBP1Δ C 2 1 µg-60 µg protein |
